The source of these data is article PMC11470758.

In data set [1] the target is T1, MBP-GlcR (MGlcR) (Paracoccus denitrificans) (UniProt A1BAC0).
T1 sequence: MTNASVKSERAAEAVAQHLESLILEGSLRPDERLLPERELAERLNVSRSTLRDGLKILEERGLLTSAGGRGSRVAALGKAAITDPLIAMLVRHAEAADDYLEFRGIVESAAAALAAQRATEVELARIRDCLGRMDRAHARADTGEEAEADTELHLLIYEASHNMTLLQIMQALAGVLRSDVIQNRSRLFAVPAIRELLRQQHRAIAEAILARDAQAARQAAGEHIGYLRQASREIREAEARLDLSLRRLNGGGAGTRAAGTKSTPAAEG
Put plainly: EMSA. The settings on record: EMSA buffer, salt, pH and temperature not given in the material.

The next data set addresses T2, MBP-GlcR (MGlcR) (Paracoccus denitrificans, UniProt A1BAC0 1-269).
T2 sequence: T1 sequence
The data set can be described thus: EMSA. Background: Mobility shift assays separate free from complexed probe on a gel.

On to “CTTTCTAGATCACGCACGCGCCAGGATGCCCGCATCGGGCCGGGGCATGGCAATACCGGACAAGCTCTCCTCCCTTGGTCGAACGGCAGGCCCGTGTCCTGCCCTGCATTCTTGGTATAATTTTCAGACCACATTAGTCAATCGGTATTTTTCTGGACCGACACGCCCGTCCTGTGCTTACATGGCAGGGATCCGACAACCGCATGAGCGCCCATGACCAACGCATCCGTGAAATCCGAACGCGCCGCCGAGGCCGTGGCCCAGTGAGAATTCATATC (double strand) [pden4399-4400 intergenic sequence]”, for which, in data set [1], the binding entry is given as “binds”.

B1: fragment #3 (dsDNA)
DNA 1: GTCCAGAAAAATACCGATTGACTAATGTGGTCTGAAAATTATACCAAGAATGCAGGGCAG
DNA 2: CTGCCCTGCATTCTTGGTATAATTTTCAGACCACATTAGTCAATCGGTATTTTTCTGGAC
Take B1: the binding result in the data set with MBP-GlcR (MGlcR) is on record as “binds”.
